This note sets out measurements from patent publication US20240116997A1 (BRIGHT PEAK THERAPEUTICS, published 2024).

In test [1] the target is T1, IL-18 receptor (IL-18Rαβ) on cells (UniProt Q13478 19-541; O95256 20-599, limits assumed).
T1 sequence (looked up) 1: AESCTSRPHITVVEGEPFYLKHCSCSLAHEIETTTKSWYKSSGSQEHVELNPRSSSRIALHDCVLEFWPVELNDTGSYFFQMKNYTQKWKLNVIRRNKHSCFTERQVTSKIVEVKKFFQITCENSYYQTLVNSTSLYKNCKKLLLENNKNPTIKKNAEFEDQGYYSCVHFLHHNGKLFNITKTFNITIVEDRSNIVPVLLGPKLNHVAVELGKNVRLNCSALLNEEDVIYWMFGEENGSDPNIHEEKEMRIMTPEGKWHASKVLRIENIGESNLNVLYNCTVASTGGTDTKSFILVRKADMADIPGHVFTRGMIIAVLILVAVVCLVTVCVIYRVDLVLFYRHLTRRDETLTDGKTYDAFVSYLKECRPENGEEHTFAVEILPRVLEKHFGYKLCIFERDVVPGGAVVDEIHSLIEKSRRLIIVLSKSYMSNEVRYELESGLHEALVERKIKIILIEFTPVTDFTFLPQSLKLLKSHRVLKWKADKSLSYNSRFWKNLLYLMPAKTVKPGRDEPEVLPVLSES
T1 sequence (looked up) 2: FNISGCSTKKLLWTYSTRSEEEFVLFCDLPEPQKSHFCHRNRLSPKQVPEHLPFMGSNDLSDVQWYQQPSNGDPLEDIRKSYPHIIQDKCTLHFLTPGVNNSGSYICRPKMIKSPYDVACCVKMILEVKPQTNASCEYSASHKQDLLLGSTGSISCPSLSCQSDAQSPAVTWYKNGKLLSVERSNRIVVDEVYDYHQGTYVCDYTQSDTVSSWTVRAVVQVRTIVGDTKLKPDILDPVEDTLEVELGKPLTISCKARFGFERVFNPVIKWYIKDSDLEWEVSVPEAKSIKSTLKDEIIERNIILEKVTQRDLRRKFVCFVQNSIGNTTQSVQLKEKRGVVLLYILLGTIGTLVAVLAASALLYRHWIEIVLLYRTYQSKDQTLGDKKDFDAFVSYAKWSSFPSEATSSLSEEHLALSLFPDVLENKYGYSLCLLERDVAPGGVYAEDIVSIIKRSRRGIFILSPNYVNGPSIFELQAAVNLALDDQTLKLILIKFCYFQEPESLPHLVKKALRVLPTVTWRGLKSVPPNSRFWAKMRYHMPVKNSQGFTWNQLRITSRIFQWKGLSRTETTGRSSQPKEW
Put plainly: cell-based or functional assay.

In test [2] the target is T1, IL-18 receptor (IL-18Rαβ) on cells. In words: cell-based or functional assay. This is another data set of the same source.

“And” between values parts separate entries of the source, which are not always exact repeats. Identical values can stand only once.

B1: IL-18 polypeptide SEQ ID NO: 42 (E06K, K53A, S55A, T63A) (ligand)
chain: YFGKLKSKLSVIRNLNDQVLFIDQGNRPLFEDMTDSDCRDNAPRTIFIISMYADAQPRGMAVAISVKCEKISTLSCENKIISFKEMNPPDNIKDTKSDIIFFQRSVPGHDNKMQFESSSYEGYFLACEKERDLFKLILKKEDELGDRSIMFTVQNED
As for B1, the “EC50 (pM), HEK-Blue IL-18R reporter assay” value (shortened to “EC50 (pM)”) in test [1] worked out at 0.79 pM. Besides, the “EC50 (nM), IFNγ induction, NK-92 cells” value in test [2] turned out to be 0.144 nM.

B2: IL-18 polypeptide SEQ ID NO: 4 (E6K, C38A, K53A, C68A, M86C) (ligand)
chain: YFGKLKSKLSVIRNLNDQVLFIDQGNRPLFEDMTDSDARDNAPRTIFIISMYADSQPRGMAVTISVKAEKISTLSCENKIISFKECNPPDNIKDTKSDIIFFQRSVPGHDNKMQFESSSYEGYFLACEKERDLFKLILKKEDELGDRSIMFTVQNED
Take B2: the “EC50 (nM), IFNγ induction, NK-92 cells” value in test [2] was 0.022 nM.

B3: IL-18 polypeptide SEQ ID NO: 57 (E6K, C38S, K53A) (ligand)
chain: YFGKLKSKLSVIRNLNDQVLFIDQGNRPLFEDMTDSDSRDNAPRTIFIISMYADSQPRGMAVTISVKCEKISTLSCENKIISFKEMNPPDNIKDTKSDIIFFQRSVPGHDNKMQFESSSYEGYFLACEKERDLFKLILKKEDELGDRSIMFTVQNED
B3: the “EC50 (pM)” value in test [1] is 0.86 pM and 0.53 pM. The “EC50 (nM), IFNγ induction, NK-92 cells” value in test [2] came out at 0.138 nM.

B4: IL-18 polypeptide SEQ ID NO: 9 (E6K, C38A, K53A, C68A, D98C) (ligand)
chain: YFGKLKSKLSVIRNLNDQVLFIDQGNRPLFEDMTDSDARDNAPRTIFIISMYADSQPRGMAVTISVKAEKISTLSCENKIISFKEMNPPDNIKDTKSCIIFFQRSVPGHDNKMQFESSSYEGYFLACEKERDLFKLILKKEDELGDRSIMFTVQNED
For the molecule B4, in test [2], the “EC50 (nM), IFNγ induction, NK-92 cells” value was found to be 0.069 nM.

B5: IL-18 polypeptide SEQ ID NO: 62 (E6K, C38A, K53A, C127A) (ligand)
chain: YFGKLKSKLSVIRNLNDQVLFIDQGNRPLFEDMTDSDARDNAPRTIFIISMYADSQPRGMAVTISVKCEKISTLSCENKIISFKEMNPPDNIKDTKSDIIFFQRSVPGHDNKMQFESSSYEGYFLAAEKERDLFKLILKKEDELGDRSIMFTVQNED
Take B5: in test [1], the “EC50 (pM)” value amounted to 0.17 pM. The “EC50 (nM), IFNγ induction, NK-92 cells” value in test [2] worked out at 0.006 nM.

B6: C143 (V11I, C38A, K53A, C76A, C127A) (ligand)
chain: YFGKLESKLSIIRNLNDQVLFIDQGNRPLFEDMTDSDARDNAPRTIFIISMYADSQPRGMAVTISVKCEKISTLSAENKIISFKEMNPPDNIKDTKSDIIFFQRSVPGHDNKMQFESSSYEGYFLAAEKERDLFKLILKKEDELGDRSIMFTVQNED
As to B6, the “EC50 (pM)” value in test [1] came to 0.98 pM. For the same molecule, in test [2], the “EC50 (nM), IFNγ induction, NK-92 cells” value was determined as 0.012 nM.

B7: C145 (V11I, C38A, K53A, S55A, C76A, C127A) (ligand)
chain: YFGKLESKLSIIRNLNDQVLFIDQGNRPLFEDMTDSDARDNAPRTIFIISMYADAQPRGMAVTISVKCEKISTLSAENKIISFKEMNPPDNIKDTKSDIIFFQRSVPGHDNKMQFESSSYEGYFLAAEKERDLFKLILKKEDELGDRSIMFTVQNED
For the molecule B7, the “EC50 (pM)” value in test [1] was 3.63 pM. The “EC50 (nM), IFNγ induction, NK-92 cells” value in test [2] was 0.037 nM.

B8: IL-18 polypeptide SEQ ID NO: 59 (E6K, C38A, K53A) (ligand)
chain: YFGKLKSKLSVIRNLNDQVLFIDQGNRPLFEDMTDSDARDNAPRTIFIISMYADSQPRGMAVTISVKCEKISTLSCENKIISFKEMNPPDNIKDTKSDIIFFQRSVPGHDNKMQFESSSYEGYFLACEKERDLFKLILKKEDELGDRSIMFTVQNED
With B8, the “EC50 (pM)” value in test [1] was 0.268 pM. Moreover, the “EC50 (nM), IFNγ induction, NK-92 cells” value in test [2] amounted to 0.045 nM.

B9: IL-18 polypeptide SEQ ID NO: 50 (E06K, K53A, T63A) (ligand)
chain: YFGKLKSKLSVIRNLNDQVLFIDQGNRPLFEDMTDSDCRDNAPRTIFIISMYADSQPRGMAVAISVKCEKISTLSCENKIISFKEMNPPDNIKDTKSDIIFFQRSVPGHDNKMQFESSSYEGYFLACEKERDLFKLILKKEDELGDRSIMFTVQNED
As to B9, the “EC50 (pM)” value in test [1] is 1.77 pM. Besides, the “EC50 (nM), IFNγ induction, NK-92 cells” value in test [2] is 0.0268 nM.

B10: IL-18 polypeptide SEQ ID NO: 60 (E6K, C38Q, K53A) (ligand)
chain: YFGKLKSKLSVIRNLNDQVLFIDQGNRPLFEDMTDSDQRDNAPRTIFIISMYADSQPRGMAVTISVKCEKISTLSCENKIISFKEMNPPDNIKDTKSDIIFFQRSVPGHDNKMQFESSSYEGYFLACEKERDLFKLILKKEDELGDRSIMFTVQNED
Consider B10, for which, in test [1], the “EC50 (pM)” value was determined as 0.203 pM. Moreover, the “EC50 (nM), IFNγ induction, NK-92 cells” value in test [2] was 0.015 nM.

B11: IL-18 polypeptide SEQ ID NO: 35 (Y01G, F02A, E06K, M51G, K53A, D54A, S55A, T63A) (ligand)
chain: GAGKLKSKLSVIRNLNDQVLFIDQGNRPLFEDMTDSDCRDNAPRTIFIISGYAAAQPRGMAVAISVKCEKISTLSCENKIISFKEMNPPDNIKDTKSDIIFFQRSVPGHDNKMQFESSSYEGYFLACEKERDLFKLILKKEDELGDRSIMFTVQNED
B11: the “EC50 (nM), IFNγ induction, NK-92 cells” value in test [2] was greater than 55 nM.

B12: C144 (V11I, C38A, K53A, T63A, C76A, C127A) (ligand)
chain: YFGKLESKLSIIRNLNDQVLFIDQGNRPLFEDMTDSDARDNAPRTIFIISMYADSQPRGMAVAISVKCEKISTLSAENKIISFKEMNPPDNIKDTKSDIIFFQRSVPGHDNKMQFESSSYEGYFLAAEKERDLFKLILKKEDELGDRSIMFTVQNED
For B12, the “EC50 (pM)” value in test [1] came out at 0.17 pM. In addition, the “EC50 (nM), IFNγ induction, NK-92 cells” value in test [2] is 0.087 nM.

B13: C147 (V11I, C38A, K53A, D54A, C76A, C127A) (ligand)
chain: YFGKLESKLSIIRNLNDQVLFIDQGNRPLFEDMTDSDARDNAPRTIFIISMYAASQPRGMAVTISVKCEKISTLSAENKIISFKEMNPPDNIKDTKSDIIFFQRSVPGHDNKMQFESSSYEGYFLAAEKERDLFKLILKKEDELGDRSIMFTVQNED
In the case of B13, the “EC50 (pM)” value in test [1] came to 1 pM. For the same molecule, the “EC50 (nM), IFNγ induction, NK-92 cells” value in test [2] stood at 0.256 nM.

B14: C146 (SEQ ID NO: 79; V11I, C38A, M51G, K53A, C76A, C127A) (ligand)
chain: YFGKLESKLSIIRNLNDQVLFIDQGNRPLFEDMTDSDARDNAPRTIFIISGYADSQPRGMAVTISVKCEKISTLSAENKIISFKEMNPPDNIKDTKSDIIFFQRSVPGHDNKMQFESSSYEGYFLAAEKERDLFKLILKKEDELGDRSIMFTVQNED
Take B14: in test [1], the “EC50 (pM)” value came to 0.8 pM. Also, the “EC50 (nM), IFNγ induction, NK-92 cells” value in test [2] is 0.079 nM.

B15: IL-18 polypeptide SEQ ID NO: 5 (E6K, V11I, C38A, K53A, T63A, C68A, C76A, M86C, C127A) (ligand)
chain: YFGKLKSKLSIIRNLNDQVLFIDQGNRPLFEDMTDSDARDNAPRTIFIISMYADSQPRGMAVAISVKAEKISTLSAENKIISFKECNPPDNIKDTKSDIIFFQRSVPGHDNKMQFESSSYEGYFLAAEKERDLFKLILKKEDELGDRSIMFTVQNED
For the molecule B15, the “EC50 (nM), IFNγ induction, NK-92 cells” value in test [2] is 0.075 nM.

B16: IL-18 polypeptide SEQ ID NO: 54 (E06K, K53A, C38S, C68S, C76S, C127S, K70C) (ligand)
chain: YFGKLKSKLSVIRNLNDQVLFIDQGNRPLFEDMTDSDSRDNAPRTIFIISMYADSQPRGMAVTISVKSECISTLSSENKIISFKEMNPPDNIKDTKSDIIFFQRSVPGHDNKMQFESSSYEGYFLASEKERDLFKLILKKEDELGDRSIMFTVQNED
Take B16: the “EC50 (pM)” value in test [1] was determined as 9.12 pM. Besides, in test [2], the “EC50 (nM), IFNγ induction, NK-92 cells” value came to 0.962 nM.

B17: IL-18 polypeptide SEQ ID NO: 6 (E6K, V11I, C38A, K53A, T63A, C68A, C76A, D98C, C127A) (ligand)
chain: YFGKLKSKLSIIRNLNDQVLFIDQGNRPLFEDMTDSDARDNAPRTIFIISMYADSQPRGMAVAISVKAEKISTLSAENKIISFKEMNPPDNIKDTKSCIIFFQRSVPGHDNKMQFESSSYEGYFLAAEKERDLFKLILKKEDELGDRSIMFTVQNED
Regarding B17, the “EC50 (nM), IFNγ induction, NK-92 cells” value in test [2] turned out to be 1.37 nM.
